In publication PMC9107513:

Experiments:
[1] = IP of tagged RYR1, blot of tagged ubiquitin, MG-132; conditions: glycan lost; control: vector / control siRNA
[2] = IP of exogenous RYR1, phospho-Ser/Thr blot; conditions: glycan lost; control: control siRNA
[3] = western blot, exogenous wild-type RYR1 in C2C12; conditions: glycan lost; control: vector / control siRNA
[4] = MS of immunoprecipitated endogenous RYR1, C2C12; conditions: glycan lost; control: control siRNA
[5] = western blot, endogenous RYR1, C2C12 myotubes ± MG-132; conditions: glycan lost; control: vector / control siRNA

In the case of human RYR1: OGT knockdown, the “other: ubiquitination” value [1] is reported as “decreases”, the “other: Ser/Thr phosphorylation” value [2] is reported as “increases” and the expression_or_secretion [3] is reported as “increases”.
In the case of RYR1: OGT knockdown, the “other: phosphorylation at T4338” value [4] is reported as “increases”.
For RYR1: siRNA-mediated knockdown of OGT, the expression_or_secretion [5] was “increases”.
